Source: US20140056902A1 (Kyowa Kirin, published 2014)
Changes are numbered by the printed parent chain.

Legend:
[1] = biological target: T1, human mature dimer BMP10 recombinant protein (manufactured by R&D systems, Cat#2926-BP) (human, UniProt O95393 317-424); experiment: ELISA, immobilized antigen (100 ng/mL coat), biotin-labeled antibody at 100 ng/mL, absorbance 450-570 nm
T1 construct: Bought protein; also called human BMP10
T1 sequence: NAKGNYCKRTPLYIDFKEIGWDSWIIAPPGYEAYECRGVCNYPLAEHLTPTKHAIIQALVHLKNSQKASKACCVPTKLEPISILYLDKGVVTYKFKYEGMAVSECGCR
Description: To examine specificity of the obtained antibodies to human BMP9, their binding ability to human BMP9 and human BMP10 having the highest homology to human BMP9 was tested by comparison. First, 100 ng/mL of human mature dimer BMP9 recombinant protein (manufactured by R&D systems, Cat#3209-BP), or human mature dimer BMP10 recombinant protein (manufactured by R&D systems, Cat#2926-BP) prepared in 50 mmol/L NaHCO₃ buffer (manufactured by Wako, Cat#191-01305) was added to a 96-well plate for ELISA (F96 MAXISORP NUNC-IMMUNO PLATE, manufactured by Thermo Fisher Scientific, Cat#442404) at an amount of 50 μL/well, and left at 4° C. overnight for adsorption.
Subsequently, 6D10-1-1 antibody, 10D5-2-3 antibody, 3B7-3-3 antibody, R&D antibody, or anti-BMP10 antibody (manufactured by R&D, Cat#MAB2926) that was labeled with biotin using a Biotin Labeling Kit-NH2 (manufactured by COSMO BIO, Cat#LK03) was prepared at a concentration of 100 ng/mL using 10% Super Block in TBST which was prepared by mixing SuperBlock and TBST at a ratio of 1:9. 50 μL/well thereof was aliquoted as a primary antibody, and left at room temperature for 1 hour.
The plate was washed with TBST five times, and 50 μL/well of the TMB substrate reagent (TMB+ Substrate-Chromogen, manufactured by Dako, Cat#S1599) was added for color-development. When proper color was developed, 50 μL/well of the 1 N sulfuric acid solution (manufactured by Wako, Cat#192-04755) was added, and absorbance (450 nm-570 nm) at a sample wavelength of 450 nm and at a reference wavelength of 570 nm was determined using a plate reader (manufactured by Spectra Max, Molecular Devices).

[2] = biological target: T2, N-terminal His-tagged BMP10 expressed by the pLN1V5_human BMP10 vector (human, UniProt O95393 22-424); experiment: antigen-immobilized ELISA, antigen coated at 3 ug/mL
T2 sequence: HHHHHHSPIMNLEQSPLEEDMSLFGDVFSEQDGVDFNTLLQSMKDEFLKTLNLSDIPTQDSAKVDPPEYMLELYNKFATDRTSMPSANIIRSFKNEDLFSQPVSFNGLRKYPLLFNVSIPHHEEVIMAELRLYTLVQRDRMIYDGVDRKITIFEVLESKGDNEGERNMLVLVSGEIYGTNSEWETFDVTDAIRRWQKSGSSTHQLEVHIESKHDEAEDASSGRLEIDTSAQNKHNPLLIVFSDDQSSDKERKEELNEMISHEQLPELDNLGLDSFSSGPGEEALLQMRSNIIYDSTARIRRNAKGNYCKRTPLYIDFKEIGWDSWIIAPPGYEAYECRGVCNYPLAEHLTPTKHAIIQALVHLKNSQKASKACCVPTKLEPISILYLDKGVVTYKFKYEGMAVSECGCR
Description: (§1) Antigen immobilized ELISA of the obtained antibodies was performed using the chimeric protein. 3 μg/mL of the recombinant human BMP9, BMP10, and BMP9/10 chimeric proteins of Example 20-2 in 50 mmol/L NaHCO₃ buffer were added to a 96-well plate for ELISA (F96 MAXISORP NUNC-IMMUNO PLATE, manufactured by Thermo Fisher Scientific, Cat#442404) at an amount of 50 μL/well, and left at 4° C. overnight for adsorption.
(§2) After removal of the reagent for immobilization, 200 μL/well of 1% BSA-PBS was added, and left at room temperature for 1 hour for blocking, and washing was carried out using PBST five times. […]
(§3) The plate was washed with PBST ten times, and 50 μL/well of the TMB chromogen reagent (TMB+Substrate-Chromogen, manufactured by Dako, Cat#S 1599) was added for chromogenic reaction. When the intensity of chromogenic reaction became strong enough, 50 μL/well of a 1 N sulfuric acid solution (manufactured by Wako, Cat#192-04755) was added, and absorbance at 450 nm and 570 nm was determined using a Multiskan Spectrum (manufactured by Thermo Labsystems).

[3] = biological target: T3, chimeric protein 5 of human BMP9/10 region C (human, UniProt Q9UK05 320-429; Q9UK05 23-319); experiment: antigen-immobilized ELISA, antigen coated at 3 ug/mL, antibody 1000 ng/mL; + = absorbance of 1 or more
T3 construct: Made in the pLN1V5_human BMP9 vector (His-tagged complex); also called Chimera 5; human BMP9/BMP10 chimeric protein 5; not shown: N-terminal His tag
T3 chain 1: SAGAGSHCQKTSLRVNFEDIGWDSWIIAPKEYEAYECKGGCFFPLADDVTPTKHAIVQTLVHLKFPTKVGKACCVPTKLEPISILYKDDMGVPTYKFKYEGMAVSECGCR
T3 chain 2: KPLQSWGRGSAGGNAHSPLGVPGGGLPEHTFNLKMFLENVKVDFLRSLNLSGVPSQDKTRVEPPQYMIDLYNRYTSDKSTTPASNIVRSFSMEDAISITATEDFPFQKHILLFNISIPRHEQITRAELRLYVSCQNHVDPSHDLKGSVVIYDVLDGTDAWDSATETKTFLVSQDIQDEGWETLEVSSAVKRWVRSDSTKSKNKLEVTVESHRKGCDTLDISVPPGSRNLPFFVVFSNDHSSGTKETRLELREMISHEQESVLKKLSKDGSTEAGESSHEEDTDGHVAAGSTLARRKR
Description: as §1, §2, §3

[4] = biological target: T4, human BMP9 recombinant protein prepared according to Example 12 of WO 2010/126169 (N-terminal His-tagged … (human, UniProt Q9UK05 320-429; Q9UK05 23-319); experiment: SPR (BIAcore 2000), antibody captured on anti-mouse IgG, human BMP9 recombinant protein as analyte, single cycle kinetics
T4 construct: not shown: N-terminal His tag
T4 sequence 1: T3 chain 1 with E80S, I84V, Y95L, F97Y, K98H, A103S, S105A
T4 sequence 2: T3 chain 2
Source text: The binding activity (affinity) of the obtained antibodies to human BMP9 recombinant protein was examined using BIAcore 2000 (manufactured by GE Healthcare). After anti-mouse IgG antibody was immobilized onto a CM5 sensor chip using a Mouse Antibody Capture Kit (manufactured by GE Healthcare), anti-human BMP9 antibody was coupled to an RU value of 700-1100.
Thereafter, 0.152 nmol/L, 0.457 nmol/L, 1.37 nmol/L, 4.1 nmol/L, 12.3 nmol/L, 36.89 nmol/L, 110.67 nmol/L, and […] of the human BMP9 recombinant protein prepared in Example 7-1 were prepared by using an HBS-EP solution (manufactured by GE Healthcare) and added as analytes, and binding affinity was measured.
Based on the obtained values, the dissociation constant (Kd value) was calculated by single cycle kinetics (BIAevaluation Software ver. 3, manufactured by GE Healthcare).

B1: 10D5-2-3 antibody (antibody, mouse IgG1, V domains shown)
VH: EVKLEESRGGLVQPGGSMKLSCVASGFTFSNYWMNWVRQSPEKGLEWVAHIRLKSDNYATHYAESVRGRFTISRDDSKSSVFLQMNNLRAEDTGIYYCTGGSNYVFAFWGQGTLVTVSA
VL: not shown
notes: Mouse monoclonal from a BMP9 KO mouse hybridoma; mouse IgG1 heavy chain, kappa light chain
[1]
  binding result: no binding (tested: 100 ng/mL)
[2]
  binding result: no binding
[3]
  binding result: binds
[4]
  Kd: 9.69 pM
  Relative binding affinity (to R&D antibody): 63.6 fold
